The source of these data is patent US20140322196A1.

Holding throughout (test): cell-based or functional assay
For test [1], the target named is Hemagglutinin (HA) of Influenza A virus A/Parma/5/06 (Wisconsin-like) H3N2 (Influenza A virus A/Parma/05/06 H3N2).
The target in test [2] is Hemagglutinin (HA) of Influenza A virus A/Puerto Rico/8/34 H1N1 (PR8 virus) (Influenza A virus A/Puerto Rico/8/34 H1N1) (UniProt P03452).
For test [3], the target named is Hemagglutinin (HA) of Influenza A virus A/Roma-ISS/2/08 (Brisbane-like) (oseltamivir-sensitive) H1N1 (Influenza A virus A/RomaISS/2/08 H1N1).
Test [4] deals with Hemagglutinin (HA) of Influenza A virus A/Turkey/Italy/2676/99 H7N1 (Influenza A virus A/Turkey/Italy/2676/99 H7N1).

B1: bLf C-lobe (aa 285-689) (protein)
chain: SFQLFGSPPGQRDLLFKDSALGFLRIPSKVDSALYLGSRYLTTLKNLRETAEEVKARYTRVVWCAVGPEEQKKCQQWSQQSGQNVTCATASTTDDCIVLVLKGEADALNLDGGYIYTAGKCGLVPVLAENRKSSKHSSLDCVLRPTEGYLAVAVVKKANEGLTWNSLKDKKSCHTAVDRTAGWNIPMGLIVNQTGSCAFDEFFSQSCAPGADPKSRLCALCAGDDQGLDKCVPNSKEKYYGYTGAFRCLAEDVGDVAFVKNDTVWENTNGESTADWAKNLNREDFRLLCLDGTRKPVTEAQSCHLAVAPNHAVVSRSDRAAHVKQVLLHQQALFGKNGKNCPDKFCLFKSETKNLLFNDNTECLAKLGGRPTYEEYLGTEYVTAIANLKKCSTSPLLEACAFLTR
For B1, the activity on viral hemagglutination (HI) in test [1] amounted to 6 nM; in test [2] it was 24 nM; in test [3], 10 nM; in test [4] it was 93.1 fM.

B2: bLf C-lobe (aa 345-689) (protein)
chain: VVWCAVGPEEQKKCQQWSQQSGQNVTCATASTTDDCIVLVLKGEADALNLDGGYIYTAGKCGLVPVLAENRKSSKHSSLDCVLRPTEGYLAVAVVKKANEGLTWNSLKDKKSCHTAVDRTAGWNIPMGLIVNQTGSCAFDEFFSQSCAPGADPKSRLCALCAGDDQGLDKCVPNSKEKYYGYTGAFRCLAEDVGDVAFVKNDTVWENTNGESTADWAKNLNREDFRLLCLDGTRKPVTEAQSCHLAVAPNHAVVSRSDRAAHVKQVLLHQQALFGKNGKNCPDKFCLFKSETKNLLFNDNTECLAKLGGRPTYEEYLGTEYVTAIANLKKCSTSPLLEACAFLTR
For the molecule B2, the activity on viral hemagglutination (HI) in test [1] was determined as 6 nM; in test [2], 12 nM; in test [3] it was 10 nM; in test [4], 93.1 fM.
